Experimental data as given in patent publication US10240123B2, “Method for preparing induced paraxial mesoderm progenitor (IPAM) cells and their use” (INSERM (INSTITUT NATIONAL DE LA SANTE ET DE LA RECHERCHE …, priority 2011, dated 2019).
“Also recorded” adds a separate entry of the source.

Legend:
[1] = tested on: Msgn1RepV mouse ES cells; assay: Msgn1RepV reporter mouse ES cell differentiation, YFP+ (iPAM) cells by flow cytometry; assay type: cell-based; settings: for effect on number of YFP+ cells (iPAM induction): 4 days of differentiation
Description: Undifferentiated mouse ES cells […] derived) were maintained on gelatin-coated dishes in DMEM supplemented with 15% fetal bovine serum (FBS; from PAA), penicillin, streptomycin, 2 mM L-Glutamine, 0.1 mM non essential amino acids, 1 mM sodium pyruvate, 0.2% β-mercaptoethanol and 1,500 U/mL LIF. ES cells were co-cultured with mytomicin-inactivated MEFs (feeders). Undifferentiated human ES cells were cultured on plates coated with matrigel (BD Biosciences) in mTeSR medium ([…] Technologies). Cultures were maintained in an incubator in 5% CO2 at 37° C. ES cells were trypsinized and plated at various densities in gelatin coated, feeder-free, 24 well plates directly in serum-based (15% FBS) or serum-replacement (15% KSR, Invitrogen) conditions supplemented with factors, and DMSO (Sigma). Recombinant proteins were obtained commercially (R&D) and stock solutions were prepared according to manufacturer's recommendation. The GSK-3ß inhibitor CHIR99021 and the BMP type I receptors inhibitor Dorsomorphin were purchased from Stemgent and prepared according to the manufacturer's recommendations. Fluorescent reporter analysis and image acquisition were done on a Zeiss Axiovert system. Cell cultures were dissociated by trypsinization, analyzed by flow cytometry on a FACScalibur (BD Biosciences) according to YFP expression. Data were further analyzed with MoFlo software (Beckman Coulter) and FlowJo software. In order to optimize the differentiation conditions for paraxial mesoderm progenitors, we developed a manual screening assay, testing candidate growth factors and drugs interfering with various signaling pathways on ES cells. The […] reporter cells were plated at a defined density in 24-well plates coated with gelatin (0.1%). Two basal culture media were selected: a DMEM based medium containing 15% fetal bovine serum (FBS, high serum) and a defined serum-free medium containing 15% KSR (Invitrogen/Gibco). These basal media were supplemented with candidate factors on day 0 of differentiation. Control and experimental conditions were cultured in parallel. Cells were left to differentiate for three to four days with medium changed on day 2 or 3. Cell cultures were analyzed on day 3 and 4 of differentiation visually and by flow cytometry for YFP+ population quantification.

[2] = tested on: BMP4; assay: BMP4 and PSM marker expression in Msgn1-YFP+ cells (microarray, qRT-PCR); assay type: cell-based, mouse; settings: for iPAM maturation, PSM specific marker expression: added to differentiation medium
Description: Mouse E9.5 embryo PSMs were microdissected and processed as previously described (Krol et al, 2011), and prepared samples were run on Affymetrix GeneChip arrays. For differentiated cell cultures, iPAMs were sorted by flow-cytometry based on their Msgn1-YFP+ expression, and samples were prepared for microarrays. Experiments were conducted on biological triplicates. Datasets were processed using Affymetrix Microarray Suite (MAS) 5.0. Total RNA was extracted from ES cell cultures using Trizol (Invitrogen) or with the […] plus mini-kit (Qiagen). RT-PCR was performed on 5 ng total RNA using QuantiFast SYBR Green RT-PCR Kit (Qiagen), appropriate primers and run on a LightCycler 480II (Roche). GAPDH was used as the internal control. To counteract this BMP4 activity, we tested the effect of addition of recombinant Noggin (Nog) protein known to inhibit BMP4, to the differentiation medium. […] We further defined both the optimal concentration and timing of Noggin addition. […] To better characterize the impact of Noggin on Msgn1-YFP+ cells, we performed microarrays on the Msgn1-YFP+ induced paraxial mesoderm progenitors (iPAM) population at day 3 and 4 of differentiation (FIG. 11, compare conditions RDN and RD). We screened a set of BMP inhibitors, including recombinant proteins Noggin (Nog), Chordin (Chd), Chordin-like 1 (Chdl1), Follistatin (Fst), Follistatin-like 1 (Fstl1), Dan family protein including Cerberus 1 (Cerberus) and Gremlin 1 (Grem1); at varying concentration range (10-200 ng/mL), and various time-window (day 0-4, day 1-4) and analyzed the impact on BMP4 and the PSM marker Tbx6 expression. Additionally, we tested the chemical compound Dorsomorphin (Compound C), a specific BMP type I receptor inhibitor, at various concentration (0.1-1 μM) and various time-window (day 0-4, day 1-4).

[3] = tested on: canonical Wnt signaling; assay: BAT-luc luciferase reporter for canonical Wnt signaling in ES cells; assay type: cell-based, mouse; settings: Rspo3 10 ng/mL, 1% FBS medium
[4] = tested on: HUES1 cells; assay: qRT-PCR of paraxial mesoderm progenitor markers in differentiating human ES cells; assay type: cell-based; settings: 15% FBS containing medium, 3 to 10 days of culture
Description: Comparison of the expression of paraxial mesoderm progenitor markers Brachyury (A), PDGFRa (B), Tbx6 (C), Msgn1 (D) measured by Q RT-PCR in HUES1 undifferentiated or cultured in 15% FBS containing medium with or without Rspo3 for up to 10 days. Relative expression to undifferentiated HUES1 cells is shown (fold induction).
Total RNA was extracted from ES cell cultures using Trizol (Invitrogen) or with the Rnaeasy plus mini-kit (Qiagen). RT-PCR was performed on 5 ng total RNA using QuantiFast SYBR Green RT-PCR Kit (Qiagen), appropriate primers and run on a LightCycler 480II (Roche). GAPDH was used as the internal control.
Next, to confirm that R-spondin also induces paraxial mesoderm progenitors (iPAM) cells from human ES cells differentiation, HUES1 cells were plated as single cells and differentiated in 15% FBS containing medium with or without Rspo3. qRT-PCR time course analysis for paraxial mesoderm progenitor markers expression was performed (FIG. 10).

In the case of `C[S+](C)[O-]` [DMSO, Dimethyl sulfoxide, reference compound], the “effect on number of YFP+ cells (iPAM induction)” value (from here on “effect on number of YFP+ cells”) ([1]; 15% FBS medium) is reported as “increase of YFP+ cells”.

For `Cc1c[nH]c(-c2cnc(NCCNc3ccc(C#N)cn3)nc2-c2ccc(Cl)cc2Cl)n1` [CHIR99021, reference compound], the “effect on number of YFP+ cells” value ([1]; 15% FBS medium) was “as efficient as Rspo-3”.

For `c1cc(-c2cnn3cc(-c4ccc(OCCN5CCCCC5)cc4)cnc23)ccn1` [Dorsomorphin, 6-[4-(2-Piperidin-1-yl-ethoxy)phenyl]-3-pyridin-4-yl-pyrazolo [1,5-a]pyrimidine, reference compound], the “iPAM maturation, PSM specific marker expression” value (“iPAM maturation” for short) [2] was “promoting induced paraxial mesoderm progenitors (iPAM) maturation”.

B1: R-spondin3: secreted protein of the R-spondin family that activates the Wnt signaling pathway; recombinant (protein, UniProt Q9BXY4 22-272, looked up)
R-spondin-3: QNASRGRRQRRMHPNVSQGCQGGCATCSDYNGCLSCKPRLFFALERIGMKQIGVCLSSCPSGYYGTRYPDINKCTKCKADCDTCFNKNFCTKCKSGFYLHLGKCLDNCPEGLEANNHTMECVSIVHCEVSEWNPWSPCTKKGKTCGFKRGTETRVREIIQHPSAKGNLCPPTNETRKCTVQRKKCQKGERGKKGRERKRKKPNKGESKEAIPDSKSLESSKEIPEQRENKQQQKKRKVQDKQKSVSVSTVH
B1 was tested, and the “induction of YFP+ cells” value ([1]; 10 ng/mL, both FBS based and KSR based medium, 4 days) was “up to 70%”, the “effect on number of YFP+ cells” value ([1]; 15% FBS medium) was “significantly increase the number of YFP+ cells” and the “YFP+ population of the total population” value ([1]; day 4 of differentiation, 15% FBS medium, R-spondin3 10 ng/mL) was “more than 70%”. For the same molecule, the “luciferase from BAT-luc canonical Wnt reporter” value [3] was “strongly activated”, the “luciferase from BAT-luc canonical Wnt reporter” value ([3]; listed as Rspo3) was “strongly activates the canonical Wnt response” and the “expression of paraxial mesoderm progenitor markers (qRT-PCR)” value [4] was “induction of the paraxial mesoderm progenitor markers, Brachyury, PDGFRa, Tbx6 and Msgn1 is observed; also recorded: Strong activation of Msgn1 and Tbx6”.

B2: R-spondin2: secreted protein of the R-spondin family that activates the Wnt signaling pathway; recombinant (protein, UniProt Q6UXX9 22-243, looked up)
R-spondin-2: QGNRWRRSKRASYVSNPICKGCLSCSKDNGCSRCQQKLFFFLRREGMRQYGECLHSCPSGYYGHRAPDMNRCARCRIENCDSCFSKDFCTKCKVGFYLHRGRCFDECPDGFAPLEETMECVEGCEVGHWSEWGTCSRNNRTCGFKWGLETRTRQIVKKPVKDTILCPTIAESRRCKMTMRHCPGGKRTPKAKEKRNKKKKRKLIERAQEQHSVFLATDRANQ
In the case of B2, the “effect on number of YFP+ cells” value ([1]; 15% FBS medium) is reported as “significantly increase the number of YFP+ cells”.

B3: Follistatin: recombinant protein BMP inhibitor (protein, UniProt P19883 30-344, looked up)
Follistatin: GNCWLRQAKNGRCQVLYKTELSKEECCSTGRLSTSWTEEDVNDNTLFKWMIFNGGAPNCIPCKETCENVDCGPGKKCRMNKKNKPRCVCAPDCSNITWKGPVCGLDGKTYRNECALLKARCKEQPELEVQYQGRCKKTCRDVFCPGSSTCVVDQTNNAYCVTCNRICPEPASSEQYLCGNDGVTYSSACHLRKATCLLGRSIGLAYEGKCIKAKSCEDIQCTGGKKCLWDFKVGRGRCSLCDELCPDSKSDEPVCASDNATYASECAMKEAACSSGVLLEVKHSGSCNSISEDTEEEEEDEDQDYSFPISSILEW
B3 was tested, and the “iPAM maturation” value [2] was “promoting induced paraxial mesoderm progenitors (iPAM) maturation”.

B4: Dkk1: secreted extracellular Wnt antagonist, canonical Wnt inhibitor (protein, UniProt O94907 32-266, looked up)
Dickkopf-related protein 1: TLNSVLNSNAIKNLPPPLGGAAGHPGSAVSAAPGILYPGGNKYQTIDNYQPYPCAEDEECGTDEYCASPTRGGDAGVQICLACRKRRKRCMRHAMCCPGNYCKNGICVSSDQNHFRGEIEETITESFGNDHSTLDGYSRRTTLSSKMYHTKGQEGSVCLRSSDCASGLCCARHFWSKICKPVLKEGQVCTKHRRKGSHGLEIFQRCYCGEGLSCRIQKDHHQASNSSRLHTCQRH
With B4 the “effect on number of YFP+ cells” value ([1]; 15% FBS medium) was “sharp decrease of YFP+ induction”.

B5: Noggin: recombinant protein known to inhibit BMP4 (protein, UniProt Q13253 28-232, looked up)
Noggin: QHYLHIRPAPSDNLPLVDLIEHPDPIFDPKEKDLNETLLRSLLGGHYDPGFMATSPPEDRPGGGGGAAGGAEDLAELDQLLRQRPSGAMPSEIKGLEFSEGLAQGKKQRLSKKLRRKLQMWLWSQTFCPVLYAWNDLGSRFWPRYVKVGSCFSKRSCSVPEGMVCKPSKSVHLTVLRWRCQRRGGQRCGWIPIQYPIISECKCSC
For B5, the “total number of Msgn1-YFP+ iPAM cells or total cell number in culture” value ([1]; added to differentiation medium) was “does not change the total number”, the “iPAM maturation” value [2] was “upregulation of several PSM specific markers; also recorded: promoting induced paraxial mesoderm progenitors (iPAM) maturation” and the “BMP4 expression in Msgn1-YFP+ cells” value ([2]; added to differentiation medium with Rspo3 and DMSO, day 3 and 4) was “effectively repress BMP4 expression; also recorded: represses BMP4 expression”.
